{
  "source": "paper PMC6412583",
  "key": {"[1]": {"biological_target": "T (control protein of the yeast two-hybrid kit, pGBKT7-T as printed)", "assay": "two-hybrid; quantitative β-gal assay of mated yeast cells with ONPG as substrate, Miller's units from OD420, in triplicate; product in test samples almost 20 h after substrate addition"}, "[2]": {"biological_target": "GmZPR3d (soybean (Glycine max))", "assay": "two-hybrid; quantitative β-gal assay of mated yeast cells with ONPG as substrate, Miller's units from OD420, in triplicate; product in test samples almost 20 h after substrate addition"}},
  "data": [
    {"substance": "53 (positive control protein of the yeast two-hybrid kit, pGADT7-53 as printed) (domain or fragment)", "values": [
      {"measurement": "fold β-Gal activity against any of the experimental pairs", "setting": "[1]", "result": 14, "unit": "fold"}
    ]},
    {"substance": "GmHD-ZIP III-2 (natural protein)", "values": [
      {"measurement": "fold β-Gal activity against GmHD-ZIP III-2::ZPR3b and GmHD-ZIP III-2::ZPR3c", "setting": "[2]", "result": 7, "unit": "fold"}
    ]}
  ]
}
